In general, Kd refers to the free concentration of one partner at which half of the binding sites on the other are occupied at equilibrium, for simple one-to-one binding. Low values mean tighter binding, high ones weaker binding. As a reminder, the stoichiometry N is a count of units in the complex or per binding partner.

First the molecules themselves.
T1: Merlin(S518D) (human, UniProt P35240 1-595, S518D)
T1 sequence (looked up): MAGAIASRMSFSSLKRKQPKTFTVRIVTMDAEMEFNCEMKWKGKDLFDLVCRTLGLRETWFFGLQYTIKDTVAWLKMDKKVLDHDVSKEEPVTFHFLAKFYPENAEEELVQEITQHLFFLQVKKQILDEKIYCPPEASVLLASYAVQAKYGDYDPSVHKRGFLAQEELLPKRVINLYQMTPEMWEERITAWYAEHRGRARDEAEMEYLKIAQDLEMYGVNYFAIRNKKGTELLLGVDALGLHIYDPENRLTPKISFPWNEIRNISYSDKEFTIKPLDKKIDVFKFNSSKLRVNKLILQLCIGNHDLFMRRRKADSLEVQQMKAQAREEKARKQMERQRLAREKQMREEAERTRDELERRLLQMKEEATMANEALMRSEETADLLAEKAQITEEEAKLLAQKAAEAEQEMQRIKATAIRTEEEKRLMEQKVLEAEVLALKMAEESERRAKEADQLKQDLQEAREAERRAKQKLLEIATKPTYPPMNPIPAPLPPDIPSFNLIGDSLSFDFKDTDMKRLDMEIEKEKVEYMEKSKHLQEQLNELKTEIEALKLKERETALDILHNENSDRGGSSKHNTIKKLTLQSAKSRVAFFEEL

T2: wild-type full-length Merlin(wt) (human, UniProt P35240 1-595)
T2 sequence (looked up): T1 sequence (looked up) with D518S

B1: FERM domain of Merlin (domain or fragment, human, UniProt P35240 22-311, looked up)
chain: FTVRIVTMDAEMEFNCEMKWKGKDLFDLVCRTLGLRETWFFGLQYTIKDTVAWLKMDKKVLDHDVSKEEPVTFHFLAKFYPENAEEELVQEITQHLFFLQVKKQILDEKIYCPPEASVLLASYAVQAKYGDYDPSVHKRGFLAQEELLPKRVINLYQMTPEMWEERITAWYAEHRGRARDEAEMEYLKIAQDLEMYGVNYFAIRNKKGTELLLGVDALGLHIYDPENRLTPKISFPWNEIRNISYSDKEFTIKPLDKKIDVFKFNSSKLRVNKLILQLCIGNHDLFMRRR
B2: NHERF1 (natural protein, UniProt O14745 1-358, looked up)
chain: MSADAAAGAPLPRLCCLEKGPNGYGFHLHGEKGKLGQYIRLVEPGSPAEKAGLLAGDRLVEVNGENVEKETHQQVVSRIRAALNAVRLLVVDPETDEQLQKLGVQVREELLRAQEAPGQAEPPAAAEVQGAGNENEPREADKSHPEQRELRPRLCTMKKGPSGYGFNLHSDKSKPGQFIRSVDPDSPAEASGLRAQDRIVEVNGVCMEGKQHGDVVSAIRAGGDETKLLVVDRETDEFFKKCRVIPSQEHLNGPLPVPFTNGEIQKENSREALAEAALESPRPALVRSASSDTSEELNSQDSPPKQDSTAPSSTSSSDPILDFNISLAMAKERAHQKRSSKRAPQMDWSKKNELFSNL

The target in test [1] is B2. Put plainly: SPR.
The target in test [2] is B2. Put plainly: ITC. On the technique in general: Isothermal titration calorimetry measures the heat released or taken up as one component is titrated into another.
Test [3] concerns the target T1, Merlin(S518D). Description: SPR. On the technique in general: In SPR one partner is held on a chip, and binding of the other changes the refractive index at the surface.
Test [4] concerns the target T2, wild-type full-length Merlin(wt). Put plainly: SPR.
The next test deals with FERM domain of Ezrin (UniProt P15311 2-296). Description: ITC.
Chain of FERM domain of Ezrin (P15311 2-296): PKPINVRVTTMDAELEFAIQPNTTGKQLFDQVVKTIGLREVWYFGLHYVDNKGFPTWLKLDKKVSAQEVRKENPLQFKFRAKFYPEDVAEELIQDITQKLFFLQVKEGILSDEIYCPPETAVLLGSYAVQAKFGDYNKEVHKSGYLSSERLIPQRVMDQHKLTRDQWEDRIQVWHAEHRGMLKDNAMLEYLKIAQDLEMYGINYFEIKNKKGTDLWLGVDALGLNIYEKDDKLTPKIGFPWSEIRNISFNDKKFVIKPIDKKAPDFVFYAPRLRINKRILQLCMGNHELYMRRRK
The test “FERM domain of Merlin” deals with B1. Description: ITC.
In test [5] the target is T1, Merlin(S518D). Put plainly: ITC.
In test [6] the target is T2, wild-type full-length Merlin(wt). Description: ITC.

Changes are numbered by the printed parent chain.

B1: the dissociation constant (Kd) was found to be 459 ± 38 nM with NHERF1 [1] and 649 ± 18 nM in the test with NHERF1 [2].
Regarding B2, the dissociation constant Kd with Merlin(S518D) [3] stood at 1240 ± 220 nM; in test [4] it was 956 ± 70 nM; with Merlin(S518D) [5], 1570 ± 322 nM; in test [6], 855 ± 160 nM. In addition, the “stoichiometry N” value in the test with FERM domain of Ezrin is 1.06; in the test with FERM domain of Merlin, 0.93; in the test with Merlin(S518D) [5], 0.39; in test [6] it was 0.37.
